In IntAct's records for PubMed 11423549:

B1: Zyxin (Homo sapiens), Q15942 (parent)
chain: MAAPRPSPAISVSVSAPAFYAPQKKFGPVVAPKPKVNPFRPGDSEPPPAPGAQRAQMGRVGEIPPPPPEDFPLPPPPLAGDGDDAEGALGGAFPPPPPPIEESFPPAPLEEEIFPSPPPPPEEEGGPEAPIPPPPQPREKVSSIDLEIDSLSSLLDDMTKNDPFKARVSSGYVPPPVATPFSSKSSTKPAAGGTAPLPPWKSPSSSQPLPQVPAPAQSQTQFHVQPQPQPKPQVQLHVQSQTQPVSLANTQPRGPPASSPAPAPKFSPVTPKFTPVASKFSPGAPGGSGSQPNQKLGHPEALSAGTGSPQPPSFTYAQQREKPRVQEKQHPVPPPAQNQNQVRSPGAPGPLTLKEVEELEQLTQQLMQDMEHPQRQNVAVNELCGRCHQPLARAQPAVRALGQLFHIACFTCHQCAQQLQGQQFYSLEGAPYCEGCYTDTLEKCNTCGEPITDRMLRATGKAYHPHCFTCVVCARPLEGTSFIVDQANRPHCVPDYHKQYAPRCSVCSEPIMPEPGRDETVRVVALDKNFHMKCYKCEDCGKPLSIEADDNGCFPLDGHVLCRKCHTARAQT

Variants of: B1
Details: with actn1_human ACTN1, P12814
Sequence of actn1_human ACTN1, P12814 (P12814 whole entry): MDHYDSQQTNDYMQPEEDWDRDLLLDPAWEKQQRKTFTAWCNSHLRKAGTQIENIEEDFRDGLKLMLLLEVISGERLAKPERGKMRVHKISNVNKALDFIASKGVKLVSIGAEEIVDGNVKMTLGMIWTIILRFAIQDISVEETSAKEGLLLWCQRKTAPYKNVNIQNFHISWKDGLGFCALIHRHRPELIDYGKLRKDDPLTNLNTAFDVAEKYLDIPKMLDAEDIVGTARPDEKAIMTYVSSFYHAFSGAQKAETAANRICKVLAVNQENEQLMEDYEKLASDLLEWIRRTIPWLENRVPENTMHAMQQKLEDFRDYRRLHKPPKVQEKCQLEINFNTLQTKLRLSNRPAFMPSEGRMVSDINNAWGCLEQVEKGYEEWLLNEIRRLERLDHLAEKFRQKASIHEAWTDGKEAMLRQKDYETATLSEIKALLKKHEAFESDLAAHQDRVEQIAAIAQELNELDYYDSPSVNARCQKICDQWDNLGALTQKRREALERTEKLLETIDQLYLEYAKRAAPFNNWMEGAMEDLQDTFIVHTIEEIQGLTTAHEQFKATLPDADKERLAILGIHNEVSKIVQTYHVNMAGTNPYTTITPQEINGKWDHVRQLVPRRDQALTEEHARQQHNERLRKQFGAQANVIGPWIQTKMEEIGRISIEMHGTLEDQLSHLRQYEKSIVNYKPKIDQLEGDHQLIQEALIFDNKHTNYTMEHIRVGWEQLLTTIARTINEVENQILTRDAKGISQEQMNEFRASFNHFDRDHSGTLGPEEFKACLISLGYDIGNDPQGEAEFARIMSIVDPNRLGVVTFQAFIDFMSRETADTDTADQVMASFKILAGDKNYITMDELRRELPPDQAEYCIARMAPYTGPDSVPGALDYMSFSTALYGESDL

Row | effect of a mutation on the interaction | Variant
1 | decreasing interaction | MAAPRPSPAISVSVSAPAFYAPQKKFGPVVSPKPKVNPFRPGDSEPPPAPGAQRAQMGRVGEIPPPPPEDFPLPPPPLAGDGDDAEGALGGAFPPPPPPIEESFPPAPLEEEIFPSPPPPPEEEGGPEAPIPPPPQPREKVSSIDLEIDSLSSLLDDMTKNDPFKARVSSGYVPPPVATPFSSKSSTKPAAGGTAPLPPWKSPSSSQPLPQVPAPAQSQTQFHVQPQPQPKPQVQLHVQSQTQPVSLANTQPRGPPASSPAPAPKFSPVTPKFTPVASKFSPGAPGGSGSQPNQKLGHPEALSAGTGSPQPPSFTYAQQREKPRVQEKQHPVPPPAQNQNQVRSPGAPGPLTLKEVEELEQLTQQLMQDMEHPQRQNVAVNELCGRCHQPLARAQPAVRALGQLFHIACFTCHQCAQQLQGQQFYSLEGAPYCEGCYTDTLEKCNTCGEPITDRMLRATGKAYHPHCFTCVVCARPLEGTSFIVDQANRPHCVPDYHKQYAPRCSVCSEPIMPEPGRDETVRVVALDKNFHMKCYKCEDCGKPLSIEADDNGCFPLDGHVLCRKCHTARAQT [A31S]
2 | decreasing interaction | MAAPRPSPAISVSVSAPAFYAPQKKFGPSVAPKPKVNPFRPGDSEPPPAPGAQRAQMGRVGEIPPPPPEDFPLPPPPLAGDGDDAEGALGGAFPPPPPPIEESFPPAPLEEEIFPSPPPPPEEEGGPEAPIPPPPQPREKVSSIDLEIDSLSSLLDDMTKNDPFKARVSSGYVPPPVATPFSSKSSTKPAAGGTAPLPPWKSPSSSQPLPQVPAPAQSQTQFHVQPQPQPKPQVQLHVQSQTQPVSLANTQPRGPPASSPAPAPKFSPVTPKFTPVASKFSPGAPGGSGSQPNQKLGHPEALSAGTGSPQPPSFTYAQQREKPRVQEKQHPVPPPAQNQNQVRSPGAPGPLTLKEVEELEQLTQQLMQDMEHPQRQNVAVNELCGRCHQPLARAQPAVRALGQLFHIACFTCHQCAQQLQGQQFYSLEGAPYCEGCYTDTLEKCNTCGEPITDRMLRATGKAYHPHCFTCVVCARPLEGTSFIVDQANRPHCVPDYHKQYAPRCSVCSEPIMPEPGRDETVRVVALDKNFHMKCYKCEDCGKPLSIEADDNGCFPLDGHVLCRKCHTARAQT [V29S]
3 | decreasing interaction | MAAPRPSPAISVSVSAPAFYAPQKKSGPVVAPKPKVNPFRPGDSEPPPAPGAQRAQMGRVGEIPPPPPEDFPLPPPPLAGDGDDAEGALGGAFPPPPPPIEESFPPAPLEEEIFPSPPPPPEEEGGPEAPIPPPPQPREKVSSIDLEIDSLSSLLDDMTKNDPFKARVSSGYVPPPVATPFSSKSSTKPAAGGTAPLPPWKSPSSSQPLPQVPAPAQSQTQFHVQPQPQPKPQVQLHVQSQTQPVSLANTQPRGPPASSPAPAPKFSPVTPKFTPVASKFSPGAPGGSGSQPNQKLGHPEALSAGTGSPQPPSFTYAQQREKPRVQEKQHPVPPPAQNQNQVRSPGAPGPLTLKEVEELEQLTQQLMQDMEHPQRQNVAVNELCGRCHQPLARAQPAVRALGQLFHIACFTCHQCAQQLQGQQFYSLEGAPYCEGCYTDTLEKCNTCGEPITDRMLRATGKAYHPHCFTCVVCARPLEGTSFIVDQANRPHCVPDYHKQYAPRCSVCSEPIMPEPGRDETVRVVALDKNFHMKCYKCEDCGKPLSIEADDNGCFPLDGHVLCRKCHTARAQT [F26S]
4 | increasing interaction | MAAPRPSPAISVSVSAPAFYAPQKKFGPVVAPKPKVNPSRPGDSEPPPAPGAQRAQMGRVGEIPPPPPEDFPLPPPPLAGDGDDAEGALGGAFPPPPPPIEESFPPAPLEEEIFPSPPPPPEEEGGPEAPIPPPPQPREKVSSIDLEIDSLSSLLDDMTKNDPFKARVSSGYVPPPVATPFSSKSSTKPAAGGTAPLPPWKSPSSSQPLPQVPAPAQSQTQFHVQPQPQPKPQVQLHVQSQTQPVSLANTQPRGPPASSPAPAPKFSPVTPKFTPVASKFSPGAPGGSGSQPNQKLGHPEALSAGTGSPQPPSFTYAQQREKPRVQEKQHPVPPPAQNQNQVRSPGAPGPLTLKEVEELEQLTQQLMQDMEHPQRQNVAVNELCGRCHQPLARAQPAVRALGQLFHIACFTCHQCAQQLQGQQFYSLEGAPYCEGCYTDTLEKCNTCGEPITDRMLRATGKAYHPHCFTCVVCARPLEGTSFIVDQANRPHCVPDYHKQYAPRCSVCSEPIMPEPGRDETVRVVALDKNFHMKCYKCEDCGKPLSIEADDNGCFPLDGHVLCRKCHTARAQT [F39S]
